# In US20120034160A1 (AbbVie / Abbott, published 2012):
# Residue numbers refer to the chain shown, from its start. Several values for one entry are separate records, joined by “and”; a condition that tells them apart may be missing. Equal entries are not always repeated.
# B1: AB270 (antibody, human IgG1, kappa, V domains shown)
# VH: EVQLQESGPGLVKPSETLSLTCTVSGFSLSDYGVSWIRQPPGKGLEWLGLIWGGGDTYYNSPLKSRLTISKDNSKSQVSLKLSSVTAADTAVYYCAKQRTLWGYDLYGMDYWGQGTLVTVSS
# VL: DTQVTQSPSSLSASVGDRVTITCITSTDIDVDMNWYQQKPGKPPKLLISQGNTLRPGVPSRFSSSGSGTDFTFTISSLQPEDFATYYCLQSDNLPLTFGQGTKLEIKR
# notes: constants by vectors: V1 wt hIgG1, V2 kappa
# B2: AB271 (antibody, human IgG1, kappa, V domains shown)
# VH: B1 VH
# VL: DTVVTQSPAFLSVTPGEKVTITCITSTDIDVDMNWYQQKPDQPPKLLISQGNTLRPGVPSRFSSSGSGTDFTFTISSLEAEDAATYYCLQSDNLPLTFGQGTKLEIKR
# notes: as for B1
# B3: AB272 (antibody, human IgG1, kappa, V domains shown)
# VH: EVQLVESGGGLVQPGGSLRLSCAVSGFTLSDYGVSWIRQAPGKGLEWLGLIWGGGDTYYNSPLKSRLTISKDNSKSTVYLQMNSLRAEDTAVYYCAKQRTLWGYDLYGMDYWGQGTLVTVSS
# VL: B1 VL with D1E, Q3T
# notes: as for B1
# B4: AB274 (antibody, human IgG1, kappa, V domains shown)
# VH: EVQLVQSGAEVKKPGSSVKVSCKASGGSFGGYGIGWVRQAPGQGLEWMGGITPFFGFADYAQKFQGRVTITADESTTTAYMELSGLTSDDTAVYYCARDPNEFWNGYYSTHDFDSWGQGTTVTVSS
# VL: EIVLTQSPDFQSVTPKEKVTITCRASQDIGSELHWYQQKPDQPPKLLIKYASHSTSGVPSRFSGSGSGTDFTLTINGLEAEDAGTYYCHQTDSLPYTFGPGTKVDIKR
# notes: Parent antibody
# B5: AB273 (antibody, human IgG1, kappa, V domains shown)
# VH: EVQLVQSGAEVKKPGSSVKVSCKASGYTFTDYEIHWVRQAPGQGLEWMGVNDPESGGTFYNQKFDGRVTLTADESTSTAYMELSSLRSEDTAVYYCTRYSKWDSFDGMDYWGQGTTVTVSS
# VL: DIQMTQSPSSLSASVGDRVTITCRASSGIISYIDWFQQKPGKAPKRLIYATFDLASGVPSRFSGSGSGTDYTLTISSLQPEDFATYYCRQVGSYPETFGQGTKLEIKR
# notes: as for B1
# B6: AB274 (antibody, human IgG1, kappa, V domains shown)
# VH: B4 VH
# VL: B4 VL
# notes: as for B1
# B7: AB270 (antibody, human IgG1, kappa, V domains shown)
# VH: B1 VH
# VL: B1 VL
# notes: Parent antibody
# B8: AB271 (antibody, human IgG1, kappa, V domains shown)
# VH: B1 VH
# VL: B2 VL
# notes: Parent antibody
# B9: AB272 (antibody, human IgG1, kappa, V domains shown)
# VH: B3 VH
# VL: B1 VL with D1E, Q3T
# notes: Parent antibody
# B10: DVD1638 (bispecific antibody, human IgG1, kappa)
# heavy: not shown
# light: EIVLTQSPDFQSVTPKEKVTITCRASQDIGSELHWYQQKPDQPPKLLIKYASHSTSGVPSRFSGSGSGTDFTLTINGLEAEDAGTYYCHQTDSLPYTFGPGTKVDIKRTVAAPETTVTQSPSSLSASVGDRVTITCITSTDIDVDMNWYQQKPGKPPKLLISQGNTLRPGVPSRFSSSGSGTDFTFTISSLQPEDFATYYCLQSDNLPLTFGQGTKLEIKRTVAAPSVFIFPPSDEQLKSGTASVVCLLNNFYPREAKVQWKVDNALQSGNSQESVTEQDSKDSTYSLSSTLTLSKADYEKHKVYACEVTHQGLSSPVTKSFNRGEC
# notes: DVD-Ig: outer AB274, inner AB272; V1/V2 vectors: wild type hIgG1, kappa
# B11: DVD1640 (bispecific antibody, human IgG1, kappa)
# heavy: not shown
# light: EIVLTQSPDFQSVTPKEKVTITCRASQNIGSELHWYQQKPDQSPKLLIKYASHSISGVPSRFSGSGSGTDFTLTINGLEAEDAATYYCHQSDTLPHTFGQGTKVDIKRTVAAPDIQMTQSPSSLSASVGDRVTITCRASGNIHNYLTWYQQTPGKAPKLLIYNAKTLADGVPSRFSGSGSGTDYTFTISSLQPEDIATYYCQHFWSIPYTFGQGTKLQITRTVAAPSVFIFPPSDEQLKSGTASVVCLLNNFYPREAKVQWKVDNALQSGNSQESVTEQDSKDSTYSLSSTLTLSKADYEKHKVYACEVTHQGLSSPVTKSFNRGEC
# notes: V1/V2 vectors: wild type hIgG1, kappa
# B12: DVD1642 (bispecific antibody, human IgG1, kappa)
# heavy: not shown
# light: B11 light
# notes: as for B11
# B13: DVD1646 (bispecific antibody, human IgG1, kappa)
# heavy: not shown
# light: EIVLTQSPDFQSVTPKEKVTITCRASQNIGSELHWYQQKPDQSPKLLIKYASHSISGVPSRFSGSGSGTDFTLTINGLEAEDAATYYCHQSDTLPHTFGQGTKVDIKRTVAAPDTVVTQSPAFLSVTPGEKVTITCITSTDIDVDMNWYQQKPDQPPKLLISQGNTLRPGVPSRFSSSGSGTDFTFTISSLEAEDAATYYCLQSDNLPLTFGQGTKLEIKRTVAAPSVFIFPPSDEQLKSGTASVVCLLNNFYPREAKVQWKVDNALQSGNSQESVTEQDSKDSTYSLSSTLTLSKADYEKHKVYACEVTHQGLSSPVTKSFNRGEC
# notes: DVD-Ig: outer AB275, inner AB271; V1/V2 vectors: wild type hIgG1, kappa
# B14: DVD1648 (bispecific antibody, human IgG1, kappa)
# heavy: not shown
# light: B10 light with D28N, P43S, T55I, G84A, T91S, S93T, Y96H, P100Q
# notes: DVD-Ig: outer AB275, inner AB272; V1/V2 vectors: wild type hIgG1, kappa
# Biological target: T1, Recombinant Human IL-1β (human, UniProt P01584 117-269)
# T1 construct: bought reagent; also called IL-1B
# Experiment: Biacore SPR
# Method: (§1) The BIACORE assay (Biacore, Inc, Piscataway, N.J.) determines the affinity of antibodies or DVD-Ig with kinetic measurements of on-rate and off-rate constants. Binding of antibodies or DVD-Ig to a target antigen (for example, a purified recombinant target antigen) was determined by surface plasmon resonance-based measurements with a Biacore® 1000 or 3000 instrument (Biacore® AB, Uppsala, Sweden) using running HBS-EP (10 mM HEPES [pH 7.4], 150 mM NaCl, 3 mM EDTA, and 0.005% surfactant P20) at 25° C. All chemicals were obtained from Biacore® AB (Uppsala, Sweden) or otherwise from a different source as described in the text. For example, approximately 5000 RU of goat anti-mouse IgG, (Fcγ), fragment specific polyclonal antibody (Pierce Biotechnology Inc, Rockford, Ill.) diluted in 10 mM sodium acetate (pH 4.5) was directly immobilized across a CM5 research grade biosensor chip using a standard amine coupling kit according to manufacturer's instructions and procedures at 25 μg/ml. Unreacted moieties on the biosensor surface were blocked with ethanolamine. Modified carboxymethyl dextran surface in flowcell 2 and 4 was used as a reaction surface. Unmodified carboxymethyl dextran without goat anti-mouse IgG in flow cell 1 and 3 was used as the reference surface. For kinetic analysis, rate equations derived from the 1:1 Langmuir binding model were fitted simultaneously to association and dissociation phases of all eight injections (using global fit analysis) with the use of Biaevaluation 4.0.1 software. Purified antibodies or DVD-Ig were diluted in HEPES-buffered saline for capture across goat anti-mouse IgG specific reaction surfaces. Antibodies or DVD-Ig to be captured as a ligand (25 μg/ml) were injected over reaction matrices at a flow rate of 5 μl/min. The association and dissociation rate constants, kₒₙ (M⁻¹s⁻¹) and koff (s⁻¹) were determined under a continuous flow rate of 25 μl/min. Rate constants were derived by making kinetic binding measurements at different antigen concentrations ranging from 10−200 nM. The equilibrium dissociation constant (M) of the reaction between antibodies or DVD-Igs and the target antigen was then calculated from the kinetic rate constants by the following formula: KD=koff/kₒₙ. Binding was recorded as a function of time and kinetic rate constants are calculated.
Binder,Kd,koff,kon
B1,0.089 nM and 0.082 nM and 0.08 nM,0.00058 s⁻¹ and 0.00055 s⁻¹ and 0.00053 s⁻¹,6.5e+06 M⁻¹ s⁻¹ and 6.7e+06 M⁻¹ s⁻¹ and 6.6e+06 M⁻¹ s⁻¹
B2,0.11 nM and 0.096 nM,0.00055 s⁻¹ and 0.00057 s⁻¹ and 0.00051 s⁻¹,5.1e+06 M⁻¹ s⁻¹ and 6e+06 M⁻¹ s⁻¹ and 4.6e+06 M⁻¹ s⁻¹
B3,0.14 nM and 0.12 nM,0.00053 s⁻¹ and 0.00066 s⁻¹ and 0.00056 s⁻¹,3.9e+06 M⁻¹ s⁻¹ and 5.3e+06 M⁻¹ s⁻¹ and 4e+06 M⁻¹ s⁻¹

# Biological target: T2, Recombinant Human IL-17 (human, UniProt Q16552 20-155, limits assumed)
# T2 construct: Bought reagent
# T2 sequence (looked up): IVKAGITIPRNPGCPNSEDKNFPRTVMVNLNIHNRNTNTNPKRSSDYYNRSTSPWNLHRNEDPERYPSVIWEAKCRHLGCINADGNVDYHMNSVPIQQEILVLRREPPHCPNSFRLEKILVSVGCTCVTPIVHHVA
# Experiment: Biacore SPR
# Method: as §1
Binder,Kd,koff,kon
B4,0.0068 nM,1.8e-05 s⁻¹,2.7e+06 M⁻¹ s⁻¹

# Biological target: T3, Recombinant Human IL-17 (human, UniProt Q16552 20-155, limits assumed)
# T3 construct: bought reagent
# T3 sequence (looked up): T2 sequence (looked up)
# Experiment: Biacore SPR
# Method: as §1
row,Binder,koff
1,B5,≤ 1e-05 s⁻¹ and 1.2e-05 s⁻¹ and 1.3e-05 s⁻¹
2,B6,2e-05 s⁻¹ and 2.1e-05 s⁻¹ and 1.8e-05 s⁻¹

# Biological target: T4, Recombinant Human IL-1β (human, UniProt P01584 117-269)
# T4 construct: Bought reagent; also called IL-1B
# Experiment: Biacore SPR
# Method: as §1
Binder,Kd,koff,kon
B7,0.08 nM,0.00053 s⁻¹,6.6e+06 M⁻¹ s⁻¹
B8,0.11 nM,0.00051 s⁻¹,4.6e+06 M⁻¹ s⁻¹
B9,0.14 nM,0.00056 s⁻¹,4e+06 M⁻¹ s⁻¹

# Biological target: T2, Recombinant Human IL-17
# Experiment: cell-based or functional assay
Binder,N-terminal VD IL-17 Neutralization Assay EC50,IL-17 Neutralization Assay EC50
B10,0.0069 nM,
B11,0.0061 nM,
B12,0.0043 nM,
B13,0.0082 nM,
B14,0.0089 nM,
B4,,0.002 nM

# Biological target: T4, Recombinant Human IL-1β
# Experiment: Biacore SPR; C-terminal VD
# Outline: (§2)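 First, goat anti-mouse IgG was immobilized on a CM5 chip by amine coupling. Next, test antibody or DVD-Ig (25 μg/ml) was captured. Then antigen at 10−200 nM flowed over at 25 μl/min, 25° C. Finally, association and dissociation phases were globally fitted to a 1:1 model.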
Binder,Kd,koff,kon
B10,0.63 nM,0.00085 s⁻¹,1.3e+06 M⁻¹ s⁻¹
B11,0.09 nM,1.2e-05 s⁻¹,130000 M⁻¹ s⁻¹
B12,< 0.001 nM,< 1e-06 s⁻¹,960000 M⁻¹ s⁻¹
B13,0.62 nM,0.00063 s⁻¹,1e+06 M⁻¹ s⁻¹
B14,0.56 nM,0.00075 s⁻¹,1.3e+06 M⁻¹ s⁻¹

# Biological target: T4, Recombinant Human IL-1β
# Experiment: cell-based or functional assay
Binder,IL-1β Neutralization Assay EC50,C-Terminal VD IL-1β Neutralization Assay EC50
B7,0.245 nM,
B8,0.308 nM,
B9,0.298 nM,
B10,,> 20 nM
B11,,2.85 nM
B12,,0.628 nM
B13,,20.6 nM
B14,,16.2 nM

# Biological target: T2, Recombinant Human IL-17
# Experiment: Biacore SPR; N-terminal VD
# Outline: as §2
Binder,Kd,koff,kon
B10,0.0068 nM,2.7e-05 s⁻¹,3.9e+06 M⁻¹ s⁻¹
B11,0.017 nM,6.5e-05 s⁻¹,3.8e+06 M⁻¹ s⁻¹
B12,0.011 nM,4.1e-05 s⁻¹,3.9e+06 M⁻¹ s⁻¹
B13,0.012 nM,4.7e-05 s⁻¹,3.9e+06 M⁻¹ s⁻¹
B14,0.02 nM,6.2e-05 s⁻¹,3.1e+06 M⁻¹ s⁻¹
